From PMC4161306, “Regulation of Arabidopsis Flowering by the Histone Mark Readers MRG1/2 via Interaction with CONSTANS to Modulate FT Expression” (PLoS Genetics, 2014)

Target: MRG2 chromodomain (residues 41-123) (Arabidopsis thaliana) (UniProt Q4V3E2)
Experiment: ITC; 25 C, MicroCal iTC200; 50 mM Tris pH 8.0, 100 mM NaCl; 0.2-0.4 mM protein in the cell, 2-4 mM peptide injected in 2 ul aliquots (20 injections); one-site model

MRG2 chromodomain (residues 41-123) (Arabidopsis thaliana), sequence (Q4V3E2 41-123): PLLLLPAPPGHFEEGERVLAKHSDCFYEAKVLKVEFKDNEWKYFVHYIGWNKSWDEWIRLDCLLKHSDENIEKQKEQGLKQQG

Substance	Kd [µM]
H3K4me3 peptide (residues 1-9)	800
H3K36me3 peptide (residues 31-41)	690
